Where no end group is shown, it is not given here. The star is where a group is joined. Biotin = O=C1N[C@H]2[C@H](CS[C@H]2CCCCC(=O)*)N1
What was measured:
[1] = molecular target: VB1-008 monoclonal antibody; test: peptide in molar excess (20× to 200×) against 0.5 µM VB1-008, flow cytometry on MDA-MB-435S cells
[2] = molecular target: Peptide 2 (Biotin-…) (human); test: ELISA on peptide-coated plates, 75 µg/mL VB1-008; reference Peptide 3

Biotin-ATNMDSSHSIT [Peptide 3 (Biotin-…)] gave a competition efficiency [1] of 96%.

B1: VB1-008 monoclonal antibody (antibody, V domains shown)
VH: QVQLQELGPRLVRPSQTLILTCTVSGGSVSGDEYYWSWLRQTPGKGLEWIGYMSYRGSSYYSPSLQSRVTIAVDRSKNEFSLKLTSVTAADAAVYFCARKYCGGDCRSGFDIWGRGTMVTVAS
VL: YELTQPPSVSVSPGQKAFITCSGDNLGNKYVCWYQQKPGQSPVLVIYEDTKRPSGIPERFSASNSGNTATLTISGTQPIDEADYYCQAWDSRTEIFGTGTKVTVLS
For B1, the percent of the binding observed with Peptide 3 [2] was 50 to 60%.

Biotin-RIPATNMDSSH [Peptide 2 (Biotin-…)] gave a competition efficiency [1] of 60%.
